Article PMC10842004 (Journal of molecular biology, 2023)

Molecular target: ubiquitin (UniProt P0CG48 1-76)
Assay: NMR titration

binding result: binds
B1: RAD23A UBA1 domain (aa 160–205) (domain or fragment)
chain: not shown
